In publication PMC6179962, “POLE3-POLE4 Is a Histone H3-H4 Chaperone that Maintains Chromatin Integrity during DNA Replication” (Molecular Cell, 2018):
Values belong to the molecule of their own block, whether it stands above or below them.

What was measured:
[1] = biological target: tagged POLE3-POLE4 complex (GST-Pole4/His-POLE3) (human) (UniProt Q9NR33); experiment: pull-down; as a2 but 300 mM NaCl
[2] = biological target: T1, GST-tagged POLE3 (human, UniProt Q9NRF9 1-147); experiment: pull-down; GST-tagged POLE3 or POLE4 (WT or mutant) on glutathione beads with His-tagged POLE4 or POLE3; 150 mM and 1 M NaCl (Figures S1A, S1B); salt of Figure 1C not told; settings: both partners purified
T1 construct: DNA polymerase epsilon subunit POLE3, human, full length; cloned in pGEX 6P-1; also called GST-POLE3; source: E. coli BL21(DE3) pLysS, purified (glutathione-Sepharose 4B)
T1 sequence (looked up): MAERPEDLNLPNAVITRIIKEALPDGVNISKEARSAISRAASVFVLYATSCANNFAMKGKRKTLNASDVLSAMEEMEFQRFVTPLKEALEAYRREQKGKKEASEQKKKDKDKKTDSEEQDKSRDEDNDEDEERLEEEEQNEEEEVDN

[3] = biological target: T2, His-tagged POLE3 (human, UniProt Q9NRF9 1-147); experiment: as above; settings: both partners purified
T2 construct: DNA polymerase epsilon subunit POLE3, human; cloned via Gateway into pDEST17; also called His-POLE3; source: E. coli BL21(DE3) pLysS, purified (Ni-NTA)
T2 sequence (looked up): T1 sequence (looked up)

percent of the interaction at 150 mM NaCl [1]: 50%
Molecule: purified H3-H4 histones (H3.3 variant) (from UniProt P84243 1-136; P62805 1-103) (complex)

binding result [2]: binds
B1: His-tagged POLE4 (natural protein, human, UniProt Q9NR33 1-117, looked up)
chain: MAAAAAAGSGTPREEEGPAGEAAASQPQAPTSVPGARLSRLPLARVKALVKADPDVTLAGQEAIFILARAAELFVETIAKDAYCCAQQGKRKTLQRRDLDNAIEAVDEFAFLEGTLD
notes: DNA polymerase epsilon subunit POLE4, human; cloned via Gateway into pDEST17; also called His-POLE4; source: E. coli BL21(DE3) pLysS, purified (Ni-NTA)

binding result [3]: binds
B2: GST-tagged POLE4 (natural protein, human, UniProt Q9NR33 1-117, looked up)
chain: B1 chain
notes: DNA polymerase epsilon subunit POLE4, human, full length; cloned in pGEX 6P-1; also called GST-POLE4; source: E. coli BL21(DE3) pLysS, purified (glutathione-Sepharose 4B)
